A value given as a limit tells only on which side of the number the result lay.

The values below come from patent US20160340421A1 (Regeneron, published 2016).

The target in experiment [1] is T1, Human GDF8 homodimer (mature human Growth and Differentiation Factor-8) (human, UniProt O14793 267-375).
T1 sequence: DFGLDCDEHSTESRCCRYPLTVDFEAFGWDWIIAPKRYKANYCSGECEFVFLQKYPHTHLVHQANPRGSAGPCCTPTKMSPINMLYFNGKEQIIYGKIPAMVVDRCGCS
Briefly: cell-based or functional assay.

Experiment [2] addresses T2, hGDF11 homodimer (human, UniProt O95390 299-407).
T2 sequence (looked up): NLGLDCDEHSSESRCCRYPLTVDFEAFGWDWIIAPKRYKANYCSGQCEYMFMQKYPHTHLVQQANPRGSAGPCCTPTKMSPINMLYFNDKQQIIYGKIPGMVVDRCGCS
Description: cell-based or functional assay.

In experiment [3] the target is T1, Human GDF8 homodimer (mature human …). Description: SPR, antibody captured, 25 nM antigen. The protocol: (§1) Equilibrium dissociation constants (KD values) for antigen binding to selected antibodies were determined by surface kinetics using a real-time biosensor surface plasmon resonance assay (BIACORE™ 2000). Each selected antibody was captured on either a goat anti-mouse IgG polyclonal antibody surface or a goat anti-hFc polyclonal antibody (Jackson Immuno Research Lab) surface created through direct chemical coupling to a BIACORE™ chip to form a captured antibody surface. Human GDF8 homodimer, hGDF11 homodimer, or hGDF5 homodimer at 25 nM was injected over the captured antibody surfaces, and antigen-antibody binding and dissociation were monitored in real time at room temperature. Kinetic analysis was performed to calculate KD, dissociation rate constants (kd), association rate constants (ka) and half-life of antigen/antibody complex dissociation (Table 2).

Experiment [4] has as its target T2, hGDF11 homodimer. Description: SPR, antibody captured, 25 nM antigen. The protocol:
as §1

For experiment [5], the target named is T1, Human GDF8 homodimer (mature human …). Description: cell-based or functional assay. The source holds these as a separate data set.
Experiment [6] shares this target. Briefly: SPR Biacore T100, captured on anti-hFc, 25°C. The protocol: (§2) Additional antigen binding experiments were conducted in which GDF8 and GDF11 were applied over a surface of selected anti-GDF8 antibodies and control antibodies at 25° C. and 37° C. Equilibrium dissociation constants (KD values) for antigen binding to selected antibodies were determined by surface kinetics using a real-time biosensor surface plasmon resonance assay (BIACORE™ T100). […] Various concentrations (2.5-0.625 nM, 2-fold dilutions) of hGDF8 homodimer or hGDF11 homodimer (or in some experiments, Activin A) were injected over the captured antibody surfaces, and antigen-antibody binding and dissociation were monitored in real time. Kinetic analysis was performed to calculate KD, dissociation rate constants (kd), association rate constants (ka) and half-life of antigen/antibody complex dissociation. (NB=no binding observed).

Experiment [7] shares this target. Briefly: SPR Biacore T100, captured on anti-hFc, 37°C. The protocol:
as §2

Experiment [8] concerns the target T2, hGDF11 homodimer. Briefly: GDF11-inducible luciferase bioassay, 0.4 nM GDF11 (legend: NB=no binding).
Experiment [9] concerns the target T2, hGDF11 homodimer. Description: cell-based or functional assay. The source holds these as a separate data set.
In experiment [10] the target is T3, GDF8/TGFβ[48-72] chimera (T48): GDF8.1-47.TGFβ1.49-76.GDF8.73-109 (human GDF8 with human TGFβ-1 sequence).
T3 chain: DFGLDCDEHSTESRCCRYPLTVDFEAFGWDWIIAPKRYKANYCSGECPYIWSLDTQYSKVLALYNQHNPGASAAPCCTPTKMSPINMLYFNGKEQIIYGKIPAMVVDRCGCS
Description: cell-based or functional assay.

Experiment [11] addresses T1, Human GDF8 homodimer (mature human …). Description: SPR, antibody captured, buffer without BSA. The protocol: as §1
Experiment [12] addresses T2, hGDF11 homodimer. Description: SPR, antibody captured, buffer without BSA. The protocol: as §1

B1: 4G3-25 (antibody, V domains shown)
VH: QVQLVESGGGVVQPGRSLRLSCVVSGFNFSRNGIHWVRQAPGKGLEWVAVISYDGRNKFYVESVKGRFTISRDNSKNTLYLQMNSLRVEDTAVYYCAKSSIGGFFEYWGQGTLVTVSS
VL: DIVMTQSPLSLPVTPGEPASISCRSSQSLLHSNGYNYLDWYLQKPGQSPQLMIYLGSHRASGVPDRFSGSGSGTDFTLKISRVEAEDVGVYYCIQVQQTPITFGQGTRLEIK
With B1, in [1], the “IC50, GDF8-inducible luciferase, A204/Smad2 cells, 0.8 nM GDF8” value (“IC50 … A204/Smad2 cells, 0.8 nM GDF8” below) was over 25000 pM. In addition, the “IC50, GDF11-inducible luciferase, A204/Smad2 cells, 0.8 nM GDF11” value (“IC50 … A204/Smad2 cells, 0.8 nM GDF11” for short) in [2] was over 25000 pM. In [3], the affinity, expressed as Kd, was 3900 pM and the T1/2 turned out to be 0.417 h. Further, in experiment [4], the Kd amounted to 1410 pM and the T1/2 was determined as 0.65 h.

B2: H4H1669P (antibody, V domains shown)
VH: QVQLVESGGGVVQPGKSLRLSCAASGFTFSSFGMHWVRQAPGKGLEWVAVIGYDGGNEYYADSVKGRFTISRDNSKNTLNLQMSSLRAEDTAVYYCSTISHYDILSGMDVWGRGTTVTVSS
VL: DIQMTQSPSSVSASVGDRVTITCRASQGISNWLAWYQQKPGKAPKLLIFAASSLQSGVPSRFSGSASGTDFTLTINSLQPEDFATYYCQQANSFPLTFGGGTKVEIKR
notes: captured by anti-hFc, so human Fc
For the molecule B2, the “IC50, luciferase bioassay, 0.5 nM GDF8” value in experiment [5] came out at 900 pM. In addition, in experiment [6], the Kd is 39.3 pM and the T1/2 is 2.18 h. In [7], this molecule registered an equilibrium dissociation constant (Kd) of 58.4 pM and a T1/2 of 0.667 h. Moreover, in [8], the binding result is recorded as “no binding”.

B3: 21-E5 (antibody, V domains shown)
VH: QVQLVESGPGLVKPSETLSLTCTVYGGSISSGNYYWGWIRQPPGKGLEWIGTIYYSGSAYYNPSLKSRVTMSVDTSKNQFSLKLSSVTAADTAVYYCVRDYYDSSGHYYNWFDPWGQGTTVTVSS
VL: AIQMTQSPSSLSASVGDRVTITCRASQDIRHDLGWYQQKPGKAPKRLIYAASSLQSGVPSRFSGSGSGTEFTLTISSLQPEDFATYYCLQHNTYPWTFGQGTKVEIKR
With B3, the “IC50 … A204/Smad2 cells, 0.8 nM GDF8” value in experiment [1] worked out at 8500 pM. The “IC50 … A204/Smad2 cells, 0.8 nM GDF11” value in experiment [2] amounted to 35000 pM. Moreover, in experiment [5], the “IC50, luciferase bioassay, 0.5 nM GDF8” value turned out to be 2340 pM and the “IC50, luciferase bioassay, 1 nM GDF8” value came to 2980 pM. Also, in experiment [9], the “IC50, luciferase bioassay, 0.4 nM GDF11” value amounted to 6900 pM and the “IC50, luciferase bioassay, 0.8 nM GDF11” value was found to be 10500 pM. In experiment [3], binding was put at a Kd of 260 pM and the T1/2 is 2.3 h. In addition, in experiment [4], the Kd worked out at 120 pM and the T1/2 worked out at 1.93 h.

B4: 3A4-3 (antibody, V domains shown)
VH: QVQLVQSGGGLVKPGGSLRLSCAASGFIFNTYTMNWVRQAPGKGLEWVSSITSRGTYIFYSDSLKGRFTISRDNANNSLFLQMNSLRVEDTAVYYCSRDRGYTFGPDYWGQGTLVTVSS
VL: DIQMTQSPSSLSASVGDRVTITCRASQDIRNDLGWYQQKPGKAPKGLIYAASSLQSGVPSRFSGSGSGTEFTLTISSLQPEDFATYHCLHYDFHPRTFGQGTKVEIK
As to B4, in experiment [1], the “IC50 … A204/Smad2 cells, 0.8 nM GDF8” value is 3100 pM. Also, the “IC50 … A204/Smad2 cells, 0.8 nM GDF11” value in experiment [2] is over 20000 pM. In addition, the Kd in experiment [3] amounted to 1070 pM; in [4], 510 pM. In addition, the T1/2 came out at 2.28 h in experiment [3] and 1.18 h in experiment [4].

B5: 21-A2 (antibody, V domains shown)
VH: QVQLVQSGGGLVQPGGSLRLSCAASGFTFNTYAISWVRQAPGKGLEWVSTITGSGYNTYYADSVKGRFTISRDNSKNTLYLQMSSLRAEDTAVFYCAKDSRYNWNYGIFDYWGQGTTVTVSS
VL: DIQMTQSPATLSVSPGERATLSCRASQSVSSNLAWYHQKPGQAPRLLIYGVSTRATGIPARFSGNGSGTEFTLTISSLQSEDFAVYYCQQHNNWPLTFGGGTKVEIKR
B5: the “IC50 … A204/Smad2 cells, 0.8 nM GDF8” value in [1] turned out to be 9700 pM. For the same molecule, in experiment [2], the “IC50 … A204/Smad2 cells, 0.8 nM GDF11” value was over 10000 pM. Also, the Kd in experiment [3] turned out to be 400 pM; in experiment [4], 900 pM. Further, the T1/2 in experiment [3] amounted to 1.3 h; in [4], 0.35 h.

B6: 1A2-hFc (antibody, V domains shown)
VH: EVQLLESGGGLVQPGGSLRLSCAASGFTSITYAMSWVRQAPGKGLEWVSAISVSGTNTYYADSVKGRFTISRDKSKNMLYLQMNSLRAEDTAVYYCAKDLLHNWKYGTFDIWGQGTMVTVSS
VL: EIVMTQSPATLSVSPGERATLSCRASQSVDSNLVWYQQKPGQVPRLLIYGASTRATGIPARFSGSGSGTEFTLTISSLQSEDFAVYYCQQYNKWPLTFGGGTKVEIK
Regarding B6, the “approximate IC50, luciferase bioassay with GDF8/TGFβ[48-72] conditioned medium” value in [10] was 357 pM.

B7: 1A2-mIgG (antibody, V domains shown)
VH: EVQLLESGGGLVQPGGSLRLSCAASGFTSITYAMSWVRQAPGKGLEWVSAISVSGTNTYYADSVKGRFTISRDKSKNMLYLQMNSLRAEDTAVYYCAKDLLHNWKYGTFDIWGQGTMVTVSS
VL: EIVMTQSPATLSVSPGERATLSCRASQSVDSNLVWYQQKPGQVPRLLIYGASTRATGIPARFSGSGSGTEFTLTISSLQSEDFAVYYCQQYNKWPLTFGGGTKVEIK
notes: variable domains of 1A2
In experiment [11], B7 yielded a Kd of 18 pM and a T1/2 of 2.53 h. For the same molecule, in experiment [12], binding was put at a Kd of 926 pM and the T1/2 amounted to 1 min.

B8: 1A2-hIgG1 (antibody, V domains shown)
VH: EVQLLESGGGLVQPGGSLRLSCAASGFTSITYAMSWVRQAPGKGLEWVSAISVSGTNTYYADSVKGRFTISRDKSKNMLYLQMNSLRAEDTAVYYCAKDLLHNWKYGTFDIWGQGTMVTVSS
VL: EIVMTQSPATLSVSPGERATLSCRASQSVDSNLVWYQQKPGQVPRLLIYGASTRATGIPARFSGSGSGTEFTLTISSLQSEDFAVYYCQQYNKWPLTFGGGTKVEIK
notes: variable domains of 1A2; also called 1A2-hlgG1
On to B8, for which, in experiment [6], the Kd is 62.3 pM and the T1/2 is 1.6 h. For the same molecule, in experiment [7], binding was characterised by a dissociation constant (Kd) of 46.2 pM and the T1/2 worked out at 0.65 h.

B9: 1A2-hIgG (antibody, V domains shown)
VH: EVQLLESGGGLVQPGGSLRLSCAASGFTSITYAMSWVRQAPGKGLEWVSAISVSGTNTYYADSVKGRFTISRDKSKNMLYLQMNSLRAEDTAVYYCAKDLLHNWKYGTFDIWGQGTMVTVSS
VL: EIVMTQSPATLSVSPGERATLSCRASQSVDSNLVWYQQKPGQVPRLLIYGASTRATGIPARFSGSGSGTEFTLTISSLQSEDFAVYYCQQYNKWPLTFGGGTKVEIK
notes: variable domains of 1A2
On to B9, for which the results for the Kd in experiment [11] and in experiment [12] were 6 pM and 640 pM, respectively. Also, the results for the T1/2 in experiment [11] and in experiment [12] were 5.67 h and 6 min, respectively.
